Drawing on paper PMC3323551, this text covers binding for 5 sequences.

The target in data set [1] is T1, His-OpaR (Vibrio parahaemolyticus RIMD 2210633) (UniProt Q79YV4).
T1 sequence: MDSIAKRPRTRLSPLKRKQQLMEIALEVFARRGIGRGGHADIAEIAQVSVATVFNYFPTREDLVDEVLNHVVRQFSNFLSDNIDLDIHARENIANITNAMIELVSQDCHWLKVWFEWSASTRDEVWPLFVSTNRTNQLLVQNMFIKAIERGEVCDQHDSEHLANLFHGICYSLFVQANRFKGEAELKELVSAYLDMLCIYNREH
As to the kind of experiment: DNase I footprinting. The following applies: 1 mM MgCl2, 0.5 mM EDTA, 0.5 mM DTT, 50 mM NaCl, 10 mM Tris-HCl pH 7.5, 0.05 mg/ml poly(dI-dC), room temperature, 30 min; footprinting same buffer, then ….

The target in data set [2] is T1, His-OpaR (Vibrio parahaemolyticus RIMD 2210633). As to the kind of experiment: EMSA. The following applies: 1 mM MgCl2, 0.5 mM EDTA, 0.5 mM DTT, 50 mM NaCl, 10 mM Tris-HCl pH 7.5, 0.05 mg/ml poly(dI-dC), room temperature, 30 min; footprinting same buffer, then ….

Regarding “AGTGGTTGCTTATGAATCAATCCCAGGAAAAGGCGAGAACAGCGAACCTTCAACTCGTTAACATTTTATTTTCATTTACATTTTGACTAACTCAATTGTTAATAAATTACCTAAATTGCATTTTGAAATTGCAGAATGCAATTAAGTTTTGTTTTTTGCAAAAATTTATATAGGCAATATCAGTTTATATGAGATCTTGTGCCCAAAAATAAAGCTTTGAAAATTGGCATGATTAATGCATAATACTTCTCGACC (double strand) [qrr2 promoter fragment]”, the binding entry in data set [1] and in data set [2] was “binds” throughout.
Regarding “GGATAAGTTCAAATTGGATCCAGCCTTAGCAGGCTCGGTTATTCTAACGACAGTGACAGATGTGGTTGGTTTTTTCGCCTTTTTGGGAACGGCGAGTTTAGTCATGCTCTAAAAAGTCCACTGTTTATTAATCAATCATTAGCATAATAGAGACAAATTGCATAACGCACTTGCAAATTGCAAAAACATTCAAAGTTTAAGCAACGTATGTCACAGAAACCAC (double strand) [qrr3 promoter fragment]”, the binding result in data set [1] and in data set [2] was “binds” in each case.
Turning to “AGTGGGTTGAAAGTCACATCCTTTTGCGGAAAATTCTTGGGAGCGCTGCCAAATTTTCGAAAGTTTACAGCAAAACTTATCAATAATAATGACATTACTGTCTATAAATTATCCATCAGATGTTGACCTTGTGCATATGCACCATTACACTCATCACTGCTTAAAGCAATTATTAAAATAATCAATTAGGGGGTTACCCCCAACAACAACTCAAATGGCAAGGAAAATGGATATGGACTCAATTGCAAAGAGACCTAGAACTAGGC (double strand) [opaR promoter footprinting fragment]”, the binding entry in data set [1] is given as “binds”.
With “AACCGTGAAATCCATTTACTGAGGTATTTTTCCTCATTAATTAGCAGTATAGGGTAAAAATATGAAAGCTAATGGATAATCATAAAGTAGTAGTTGGTTTTTTGCTGAGAAAGTGATTAGTAGCAATGTAACAAGTGGCATATTTGCATGCTATTGCATTTTGCAAATGCAATTTGCGAAAGTGCTGGTTAATAATGCGTCG (double strand) [qrr4 promoter fragment]”, the binding result in data set [1] and in data set [2] was “binds” throughout.
With “AACTTCCAACCACATAATTGCGCAGCAAATAACCAGACATTTACACTACAAAAAACCCATAAAATACCAACAAATTAGAATTATTAACTACAAAATAACTCTATTGAGTATTATGTTAGTTTTTCAGGGTAATTTTGTCCTAGTATTCCACTTCATGCTTATTATTTATATACTACTTGCCTGCTGAGAGCTCATAAATCCAATCATACCTGCTCCAGCC (double strand) [aphA promoter fragment]”, the binding result in data set [1] and in data set [2] was “binds” in each case.
